The series deals with MS2 coat protein. Put plainly: apparent KD of MS2 coat protein; designed switch direction (-1 OFF switch, 1 ON switch): -1; higher = weaker reporter binding. The essentials:
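RNA switches sharing common flanks were transcribed by stalled E. coli RNA polymerase on Illumina chips. A doubling series of SNAP-549-labelled MS2 coat protein, from 0.7 or 1.5 nM to 3 µM, was applied in Tris-HCl pH 7.5 buffer with KCl, MgCl2, BSA, DTT, tRNA and Tween-20. Each step lasted 0.8–1.5 h at the bottom of the series and 10–20 min at the top. Normalised cluster fluorescence was curve-fitted, giving apparent KD as the per-design median over clusters.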

The mark [1] stands for this setting: input ligand: microRNA oligo, concentration not stated.

Experimental findings from the supplement of paper PMC9170038 are described below.

“AACAGUCUAGAGGAUAUGCUGGAUGAAUAUCUGGCAGAAGGCUGGACAUGAGGAUCACCCAUGUAAAUACUACC [Omei Ex6 A1c] (Eterna round: R97, puzzle: Exclusion 6)”: the “apparent KD of MS2 coat protein” value reads like this: (input ligand: FMN 200 uM) 96.9 nM; (input ligand: none) 36.5 nM.
Consider “AACCAGCGAGGAUAUGCUUGAGCUUGUUCUGGUUAUAAUCGACUUGAGGAUCACCCAAGUAGAAGGUGCUGACG [EX2 #58] (Eterna round: R97, puzzle: Exclusion 2)”, for which the “apparent KD of MS2 coat protein” value turned out to be 25.6 nM (input ligand: FMN 200 uM) and 26.9 nM (input ligand: none).
As for “AACCAGCUAGGAUAUGCUUGCGCGUGUUCUGGUUAUAAUCGACUUGAGGAUCACCCAAGUAGAAGGAGCUGGCG [EX2 #54] (Eterna round: R97, puzzle: Exclusion 2)”, the “apparent KD of MS2 coat protein” value worked out at 1360 nM (input ligand: FMN 200 uM) and 445 nM (input ligand: none).
Turning to “AACCUCGUAGCAGGAUAUUAGAGCUCCCGCAAAUGAGAAGGGCUACGAAACACUUGAGGAUCACCCAAGUACCGUGGUCCUCUA [Mutated MS2 EX1.8] (Eterna round: R96, puzzle: Exclusion NG 1)”, the “apparent KD of MS2 coat protein” value (input ligand: FMN 200 uM) amounted to 12.7 nM, the “apparent KD of MS2 coat protein” value under setting [1] was determined as 17.6 nM and the “apparent KD of MS2 coat protein” value (input ligand: none) was 20.7 nM.
Consider “AACGCGUGAGGAUAUUGAGGUCUAAAAUGGUAACAUGACCACGAGAAGGCACAUGAGGAUCACCCAUGUUCCCG [Eternabot (L2) Solution 49] (Eterna round: R97, puzzle: Exclusion 4)”, for which the “apparent KD of MS2 coat protein” value runs as follows: (input ligand: FMN 200 uM) 85.1 nM; (input ligand: none) 17.8 nM.
Turning to “AACGUGUAAGGAUAUCUGCUUAUGCUCAGCGAUACGCUGAUAGAGAAGGUACAUGAGGAUCACCCAUGUUCCAA [EX4 A.17] (Eterna round: R97, puzzle: Exclusion 4)”, the “apparent KD of MS2 coat protein” value came to 20.4 nM (input ligand: FMN 200 uM) and 17.5 nM (input ligand: none).
As to “AACUAGUCAGGAUAUACGAACAUGUCAAAAAACAUGAAGGGACAUGAGGAUCACCCAUGUAGAAGGGACUAGCA [74%, Web mod - With 3 less G's] (Eterna round: R96, puzzle: Exclusion 2)”, under setting [1], the “apparent KD of MS2 coat protein” value amounted to 29.3 nM.
Consider “AACUCUGAGAAGGAUAUUCAAUGGGAAACGAUAGAAGAAGGUUUCACAUGAGGAUCACCCAUGUCAAAUAGUGA [EX6 #72] (Eterna round: R97, puzzle: Exclusion 6)”, for which the “apparent KD of MS2 coat protein” value (input ligand: FMN 200 uM) amounted to 178 nM and the “apparent KD of MS2 coat protein” value (input ligand: none) is 173 nM.
With “AACUCUGAGGAGGAUAUACAGUGCGAAAGGACAGUAGAAGGCUUCACAUGAGGAUCACCCAUGUCGAAUAGUGA [EX6 #78] (Eterna round: R97, puzzle: Exclusion 6)”, the “apparent KD of MS2 coat protein” value runs as follows: (input ligand: FMN 200 uM) 68 nM; (input ligand: none) 51.9 nM.
Turning to “AACUGGACAGGAUAUGUACUUGAGCACUUGAGGAUCACCCAAGUCAUCAAGUACUCAGGCACAGAAGGGUUUAUGA [jl-ex5.4.61 ViennaUCT mod] (Eterna round: R97, puzzle: Exclusion 5)”, the “apparent KD of MS2 coat protein” value runs as follows: (input ligand: FMN 200 uM) 142 nM; (input ligand: none) 132 nM.
Regarding “AACUGGACAGGAUAUGUACUUGAGCACUUGAGGAUCACCCAAGUCAUCAAGUACUCAGGCACAGAAGGGUUUAUUU [jl-ex5.4.69 ViennaUCT mod] (Eterna round: R97, puzzle: Exclusion 5)”, the “apparent KD of MS2 coat protein” value reads like this: (input ligand: FMN 200 uM) 311 nM; (input ligand: none) 200 nM.
As to “AACUGGCGAGGAUAUACUUGGCAUAUAGCCUAAUUUCGGCUACUUGAGGAUCACCCAAGUAGAAGGUGCACGGC [Anlaxebe] (Eterna round: R97, puzzle: Exclusion 2)”, the “apparent KD of MS2 coat protein” value is, setting by setting: (input ligand: FMN 200 uM) 16.5 nM; (input ligand: none) 15.1 nM.
“AACUGUGAGGCAGGAUAUGAAGCAUGGGCCGCGUGAUAAUACAUGAGGAUCACCCAUGUAGGGAUUCAGAAGGGCCCAGAGCAC [Atusveer] (Eterna round: R96, puzzle: Exclusion NG 2)”: the “apparent KD of MS2 coat protein” value by setting is: (input ligand: FMN 200 uM) 20.4 nM; under setting [1], 11.5 nM; (input ligand: none) 18.2 nM.
